# Laboratory results from US20140302029A1 (SAMSUNG ELECTRONICS, published 2014).
# B1: anti-c-Met/anti-EGFR bispecific antibody ME-03S (bispecific antibody)
# heavy: EVQLVESGGGLVQPGGSLRLSCAASGFTFTDYYMSWVRQAPGKGLEWLGFIRNKANGYTTEYSASVKGRFTISRDNSKNTLYLQMNSLRAEDTAVYYCARDNWFAYWGQGTLVTVSSASTKGPSVFPLAPCSRSTSESTAALGCLVKDYFPEPVTVSWNSGALTSGVHTFPAVLQSSGLYSLSSVVTVPSSNFGTQTYTCNVDHKPSNTKVDKTVERKCCVECPPCPAPPVAGPSVFLFPPKPKDTLMISRTPEVTCVVVDVSHEDPEVQFNWYVDGVEVHNAKTKPREEQFNSTFRVVSVLTVVHQDWLNGKEYKCKVSNKGLPAPIEKTISKTKGQPREPQVYTLPPSREEMTKNQVSLTCLVKGFYPSDIAVEWESNGQPENNYKTTPPMLDSDGSFFLYSKLTVDKSRWQQGNVFSCSVMHEALHNHYTQKSLSLSPGKGGGGSGGGGSQVQLVQSGAEVKKPGSSVKVSCKASGFTFTDYKIHWVRQAPGQCLEWMGYINPNSGYSTYASKFQGRVTITADKSTSTAYMELSSLRSEDTAVYYCARLSPGGYYVMDAWGQGTTVTVSSGGGGSGGGGSGGGGSDIQMTQSPSSLSASVGDRVTITCRASQGINNYLNWYQQKPGKAPKLLIYNTNNLQTGVPSRFSGSGSGTEFTLTISSLQPEDEATYYCLQHNSFPTFGQCTKLEIKRT
# light: DIQMTQSPSSLSASVGDRVTITCKSSQSLLASGNQNNYLAWYQQKPGKAPKMLIIWASTRVSGVPSRFSGSGSGTDFTLTISSLQPEDFATYYCQQSYSRPYTFGQGTKVEIKRTVAAPSVFIFPPSDEQLKSGTASVVCLLNNFYPREAKVQWKVDNALQSGNSQESVTEQDSKDSTYSLSSTLTLSKADYEKHKVYACEVTHQGLSSPVTKSFNRGEC
# Assays:
# [1] = target: T1, EGFR-Fc (#344-ER, R&D Systems) (UniProt P00533 25-645); experiment: SPR, Biacore T100; ME-03S captured on human Fab binder, EGFR-Fc injected
# T1 construct: Bought reagent; not shown: Fc part of the bought fusion
# Experimental: (§1) In addition, the affinities of the prepared anti-c-Met/anti-EGFR bispecific antibody toward two types of antigens (c-Met/EGFR) were each identified using Biacore T100 (GE). A human Fab binder (GE Healthcare) was immobilized at the surface of a CM5 chip (#BR-1005-30, GE) according to the manufacturer's specifications. […] 10 mM Glycine-HCl (pH 1.5) solution was injected thereto to regenerate the surface. In order to measure affinity, the data obtained from this experiment was fitted using BIAevaluation software (GE Healthcare, Biacore T100 evaluation software).
# [2] = target: T2, c-Met-Fc (#358-MT/CF, R&D Systems) (human, UniProt P08581 25-932); experiment: SPR, Biacore T100; ME-03S captured on human Fab binder, c-Met-Fc injected
# T2 construct: also called human c-Met/Fc fusion protein (R&D Systems); not shown: Fc part of the bought fusion
# T2 sequence (P08581 25-932 limits assumed): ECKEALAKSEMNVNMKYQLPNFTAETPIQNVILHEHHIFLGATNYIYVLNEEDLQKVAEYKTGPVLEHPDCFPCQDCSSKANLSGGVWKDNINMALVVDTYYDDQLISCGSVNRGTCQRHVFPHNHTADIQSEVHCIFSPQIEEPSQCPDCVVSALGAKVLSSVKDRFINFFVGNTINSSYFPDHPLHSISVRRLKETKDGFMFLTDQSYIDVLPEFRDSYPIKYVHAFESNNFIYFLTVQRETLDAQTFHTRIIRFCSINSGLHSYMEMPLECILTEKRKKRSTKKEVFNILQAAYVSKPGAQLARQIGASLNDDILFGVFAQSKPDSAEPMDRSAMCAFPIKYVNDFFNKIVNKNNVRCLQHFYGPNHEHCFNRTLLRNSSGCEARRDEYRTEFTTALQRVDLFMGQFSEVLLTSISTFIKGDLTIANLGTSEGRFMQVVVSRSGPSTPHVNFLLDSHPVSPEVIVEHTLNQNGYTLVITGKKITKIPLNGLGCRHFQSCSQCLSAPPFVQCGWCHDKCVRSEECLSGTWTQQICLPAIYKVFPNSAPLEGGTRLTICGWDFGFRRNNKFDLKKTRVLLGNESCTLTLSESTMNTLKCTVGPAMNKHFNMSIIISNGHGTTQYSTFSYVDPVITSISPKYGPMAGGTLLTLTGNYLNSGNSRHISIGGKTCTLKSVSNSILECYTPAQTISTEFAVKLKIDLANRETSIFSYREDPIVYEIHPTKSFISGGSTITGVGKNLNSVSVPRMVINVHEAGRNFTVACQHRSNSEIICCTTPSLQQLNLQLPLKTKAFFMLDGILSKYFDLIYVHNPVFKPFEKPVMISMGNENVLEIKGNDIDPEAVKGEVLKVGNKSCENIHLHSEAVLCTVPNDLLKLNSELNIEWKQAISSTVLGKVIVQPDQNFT
# Experimental: as §1
binder,measurement,setting,value
B1,Kd,[1],0.12 nM
same,koff,[1],2.7e-05 s⁻¹
same,kon,[1],240000 M⁻¹ s⁻¹
same,Kd,[2],0.14 nM
same,koff,[2],9.3e-05 s⁻¹
same,kon,[2],660000 M⁻¹ s⁻¹
